Data as given in publication PMC4414354, “The Pentameric Nucleoplasmin Fold Is Present in Drosophila FKBP39 and a Large Number of Chromatin-Related Proteins” (Journal of Molecular Biology, 2015).

Assays:
[1] = molecular target: the molecule itself; assay: SEC; S200 or S75 120-mL column in 20 mM Tris-HCl pH 8.0, 150 mM (salt not given), 2 mM β-mercaptoethanol; apparent molecular weight
[2] = molecular target: the molecule itself; assay: SANS; deuterated FKBP39 NPL, 2.0-10.0 mg/mL, 20 mM 4-morpholineethanesulfonic acid pH 6.0, 25 mM NaCl, 20 °C; bead model fitted with 5-fold symmetry
[3] = molecular target: the molecule itself; assay: SAXS; Fpr4Δloop, 1.0-4.0 mg/mL, 50 mM Hepes pH 7.5, 100 mM NaCl, 11 °C, beamline X33 (EMBL/DESY Hamburg); P5 symmetry
[4] = molecular target: the molecule itself; assay: SAXS; HD2 NPL 1.0-5.0 mg/mL and FKBP39 NPL 1.0-20.0 mg/mL, 50 mM Hepes pH 7.5, 100 mM NaCl, 11 °C, ESRF BioSAXS beamline ID14eh3; FKBP39 modelled with P5, HD2 with P25 symmetry

B1: FKBP39 NPL domain (N-terminal nucleoplasmin-like domain of Drosophila FKBP39, residues 1-92) (domain or fragment, Drosophila melanogaster)
chain: QGAMAMFWGLNMKPERKYSQTIIKSFHISGVALDKGQEAKLYLAAEKQEYIVATVTKAIPQVALDLNFSKGDRIMFYTAGDASVSLLGYLHDIDSGS
notes: 3-4 additional amino acids left at the N-terminus after chymotrypsin cleavage, printed as [F]QGA: with or without the leading F; second amino acid changed from Ser to Ala for the NcoI cloning site; dipeptide from the BamHI site at the C-terminus; Deuterated or otherwise isotope-labelled samples were used for SANS and NMR; The structure was deposited at the PDB; also called N-terminal domain of …
[1]
  stoichiometry N: ~5
[2]
  stoichiometry N: 5

B2: Fpr4 NPLΔloop (S. cerevisiae Fpr4 amino acids 1-168 with the β4-β5 loop deleted) (domain or fragment, Saccharomyces cerevisiae, UniProt Q06205 1-168, looked up)
chain: MSDMLPLATYSLNVEPYSPTPALNFKIPVTIRITMAAIDPEPFDDDKKPSTLRIIKRNEIDDEFEECVLLTLSPKGQYQQALDITIAPEEDVQFVVTGSYTISLTGNYVKHPF
notes: Fpr4, Saccharomyces cerevisiae, amino acids 1-58 joined to 114-168 by overlap deletion PCR; The construct contains a C-terminal unstructured tail seen in the SAXS model; also called Fpr4Δloop; Fpr4 NPL domain; source: E. coli BL21 (DE3), purified
[3]
  stoichiometry N: 5

B3: Arabidopsis thaliana type 2 histone deacetylase HD2 NPL domain (HD2a, amino acids 1-112) (domain or fragment, UniProt Q56WH4 1-112, looked up)
chain: MEFWGVAVTPKNATKVTPEEDSLVHISQASLDCTVKSGESVVLSVTVGGAKLVIGTLSQDKFPQISFDLVFDKEFELSHSGTKANVHFIGYKSPNIEQDDFTSSDDEDVPEA
notes: type 2 histone deacetylase (printed as HD2a), Arabidopsis thaliana, amino acids 1-112; also called Arabidopsis NPL construct; A thali; source: E. coli BL21 (DE3), purified; copies: 10
[4]
  stoichiometry N: 10
